Measured values as given in article PMC3526665 (Protein and peptide letters, 2010).

Target: the molecule itself
Test: SEC

B1: cytoplasmic domain of QseC (QseC-CD) (domain or fragment, E. coli)
chain: RERRFTSDAAHELRSPLTALKVQTEVAQLSDDDPQARKKALLQLHSGIDRATRLVDQLLTLSRLDSLDNLQDVAEIPLEDLLQSSVMDIYHTAQQAKIDVRLTLNAHSIKRTGQPLLLSLLVRNLLDNAVRYSPQGSVVDVTLNADNFIVRDNGPGVTPEALARIGERFYRPPGQTATGSGLGLSIVQRIAKLHGMNVEFGNAEQGGFEAKVSWLE
With B1 the “stoichiometry N” value was 2.
